The target of assay [1] is decellularized extracellular matrix derived from wild-type (WT) mouse dermal fibroblasts (mouse). Briefly: AFM adhesion force, vWF-conjugated 2 µm bead on decellularized ECM (n=5).
Assay [2] has as its target decellularized extracellular matrix derived from TSP2 KO mouse dermal fibroblasts (mouse). The assay is described as above.

For the substance “Recombinant von Willebrand Factor (vWF) (Millipore), conjugated via EDC/NHS chemistry to a 2 µm carboxylated polystyrene bead on an AFM cantilever”, the adhesion force in assay [1] was determined as 53.8 pN; in assay [2] it was 16.5 pN.

Values taken from US20190125929A1.
